Columns and labels:
[1] = target: T1, soluble human CD19-biotin (human, UniProt P15391 20-291, limits assumed, biotin (site not stated)); test: bifunctional (bispecific) ELISA: plate coated with soluble human CD3ε/δ, DART titrated, detected with soluble human CD19-biotin
T1 construct: Detection antigen of the bifunctional ELISA
T1 sequence (looked up): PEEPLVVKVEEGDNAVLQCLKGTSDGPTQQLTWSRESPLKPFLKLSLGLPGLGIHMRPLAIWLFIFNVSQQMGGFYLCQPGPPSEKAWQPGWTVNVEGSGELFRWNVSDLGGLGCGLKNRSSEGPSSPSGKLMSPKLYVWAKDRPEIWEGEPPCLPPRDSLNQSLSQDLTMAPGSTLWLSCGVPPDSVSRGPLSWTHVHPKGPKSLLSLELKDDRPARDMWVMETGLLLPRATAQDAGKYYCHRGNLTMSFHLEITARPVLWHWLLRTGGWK

human CD19 on cells = target: T2, human CD19 on cells (human, UniProt P15391 20-556); test: flow cytometry on human blood leukocytes, CD20+ gate (B cells); detection with biotinylated anti-E-coil/K-coil mAb and streptavidin-PE
T2 construct: whole, on cells; also called CD19 on human CD20+ B cells; CD19 on Raji/GF, HBL-2, Jeko-1 cells
T2 sequence (looked up): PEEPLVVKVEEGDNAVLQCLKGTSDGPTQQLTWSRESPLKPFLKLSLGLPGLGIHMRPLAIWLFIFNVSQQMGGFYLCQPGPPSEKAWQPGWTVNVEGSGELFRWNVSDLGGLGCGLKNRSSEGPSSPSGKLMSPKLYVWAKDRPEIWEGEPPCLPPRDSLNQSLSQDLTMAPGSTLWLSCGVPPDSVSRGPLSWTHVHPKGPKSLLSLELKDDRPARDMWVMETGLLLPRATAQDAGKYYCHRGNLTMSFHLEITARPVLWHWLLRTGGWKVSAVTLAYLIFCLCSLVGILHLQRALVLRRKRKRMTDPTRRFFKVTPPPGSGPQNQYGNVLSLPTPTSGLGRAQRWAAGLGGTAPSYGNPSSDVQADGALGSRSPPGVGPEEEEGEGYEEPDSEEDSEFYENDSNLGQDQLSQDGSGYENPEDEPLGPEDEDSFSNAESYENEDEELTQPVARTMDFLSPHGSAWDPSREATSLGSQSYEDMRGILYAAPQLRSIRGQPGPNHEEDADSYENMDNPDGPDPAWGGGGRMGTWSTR

human CD3 on T cells = target: T3, human CD3 on T cells (human, UniProt P07766 23-207; P04234 22-171); test: flow cytometry on human blood leukocytes, CD4+ and CD8+ gate (T cells); detection with biotinylated anti-E-coil/K-coil mAb and streptavidin-PE
T3 construct: also called CD3 on human CD4+ and CD8+ T cells; copies: 1 + 1
T3 sequence (P07766 23-207 limits assumed, chain 1 of 2): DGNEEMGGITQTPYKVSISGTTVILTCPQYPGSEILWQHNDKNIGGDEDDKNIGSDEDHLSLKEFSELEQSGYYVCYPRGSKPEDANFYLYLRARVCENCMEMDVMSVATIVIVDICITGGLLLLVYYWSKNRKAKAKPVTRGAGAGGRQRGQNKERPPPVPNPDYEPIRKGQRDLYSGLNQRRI
T3 sequence (P04234 22-171 limits assumed, chain 2 of 2): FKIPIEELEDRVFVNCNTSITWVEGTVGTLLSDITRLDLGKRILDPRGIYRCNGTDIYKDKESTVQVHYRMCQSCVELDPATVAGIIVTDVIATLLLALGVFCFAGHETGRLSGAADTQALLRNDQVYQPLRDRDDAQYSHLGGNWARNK

[2] = target: T4, cynomolgus monkey CD3 on T cells (cynomolgus monkey, UniProt Q95LI5 22-198; Q95LI8 22-171); test: flow cytometry on cynomolgus monkey blood leukocytes, CD4+ and CD8+ gate (T cells); detection with biotinylated anti-E-coil/K-coil mAb and streptavidin-PE
T4 construct: T cells were gated as CD4+ and CD8+; also called CD3 on cynomolgus monkey CD4+ and CD8+ T cells
T4 sequence (Q95LI5 22-198 limits assumed, chain 1 of 2): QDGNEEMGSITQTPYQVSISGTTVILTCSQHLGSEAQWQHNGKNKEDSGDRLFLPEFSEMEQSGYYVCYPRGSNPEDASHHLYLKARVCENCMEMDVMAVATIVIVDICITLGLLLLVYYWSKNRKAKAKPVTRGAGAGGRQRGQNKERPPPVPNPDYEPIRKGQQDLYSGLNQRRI
T4 sequence (Q95LI8 22-171 limits assumed, chain 2 of 2): as the sequence (P04234 22-171 limits assumed, chain 2 of 2) above, with I5V, N15K, I20V, S32T, D33N, I34N, T64A, S74N, V83L, H141R counted along it

B1: Control DART 1 (Fluorescein×CD3) (bispecific antibody)
chain 1: DVVMTQTPFSLPVSLGDQASISCRSSQSLVHSNGNTYLRWYLQKPGQSPKVLIYKVSNRFSGVPDRFSGSGSGTDFTLKISRVEAEDLGVYFCSQSTHVPWTFGGGTKLEIKGGGSGGGGEVQLVESGGGLVQPGGSLRLSCAASGFTFSTYAMNWVRQAPGKGLEWVGRIRSKYNNYATYYADSVKGRFTISRDDSKNSLYLQMNSLKTEDTAVYYCVRHGNFGNSYVSWFAYWGQGTLVTVSSASTKGEVAACEKEVAALEKEVAALEKEVAALEKGGGDKTHTCPPCPAPEAAGGPSVFLFPPKPKDTLMISRTPEVTCVVVDVSHEDPEVKFNWYVDGVEVHNAKTKPREEQYNSTYRVVSVLTVLHQDWLNGKEYKCKVSNKALPAPIEKTISKAKGQPREPQVYTLPPSREEMTKNQVSLWCLVKGFYPSDIAVEWESNGQPENNYKTTPPVLDSDGSFFLYSKLTVDKSRWQQGNVFSCSVMHEALHNHYTQKSLSLSPGK
chain 2: QAVVTQEPSLTVSPGGTVTLTCRSSTGAVTTSNYANWVQQKPGQAPRGLIGGTNKRAPWTPARFSGSLLGGKAALTITGAQAEDEADYYCALWYSNLWVFGGGTKLTVLGGGGSGGGGEVKLDETGGGLVQPGRPMKLSCVASGFTFSDYWMNWVRQSPEKGLEWVAQIRNKPYNYETYYSDSVKGRFTISRDDSKSSVYLQMNNLRVEDMGIYYCTGSYYGMDYWGQGTSVTVSSASTKGKVAACKEKVAALKEKVAALKEKVAALKE
chain 3: not shown
notes: other arm is anti-fluorescein 4-4-20
- binding result [1]: no binding (tested: about 5 µg/ml)
- binding result (human CD19 on cells): no binding (tested: about 80 nM)
- binding result (human CD3 on T cells): binds
- binding result [2]: binds

— patent US20170157251A1 (MacroGenics, published 2017)
